In patent publication US20070060518A1 one finds fold reduction of ED50 against the native peptide and t1/2 data, which are given here for 2 substances.

A value given as a limit tells only on which side of the number the result lay.

Assay [1] deals with HLA-A*0201 class I monomer on avidin-coated plates (iTopia Epitope Discovery System) (human). Put plainly: iTopia affinity assay (FIGS. 27A and 27B).
The target is the same in assay [2]. Put plainly: iTopia off-rate assay (FIG. 26).

With “PRAME425-433 S425F L433Nle analog (peptide)”, the fold reduction of ED50 against the native peptide in assay [1] is > 4 fold.

In turn, “PRAME425-433 analog with Nva at PΩ (peptide)” returned a t1/2 in assay [2] of 17.2 h.
